The text below walks through data of US20260015398A1.

In the experiment the target is strepII-flag-PLXA fusion protein displayed on engineered extracellular vesicles (strepII-flag-PLXA-EV) (Homo sapiens (Human)) (UniProt Q9UIW2). As to the kind of experiment: in vitro co-incubation of EVs with FITC-streptactin (10000:1), nanoflow cytometry, share of FITC-positive EVs.
Sequence of UniProt Q9UIW2 (Q9UIW2 863-1316 limits assumed, change not shown): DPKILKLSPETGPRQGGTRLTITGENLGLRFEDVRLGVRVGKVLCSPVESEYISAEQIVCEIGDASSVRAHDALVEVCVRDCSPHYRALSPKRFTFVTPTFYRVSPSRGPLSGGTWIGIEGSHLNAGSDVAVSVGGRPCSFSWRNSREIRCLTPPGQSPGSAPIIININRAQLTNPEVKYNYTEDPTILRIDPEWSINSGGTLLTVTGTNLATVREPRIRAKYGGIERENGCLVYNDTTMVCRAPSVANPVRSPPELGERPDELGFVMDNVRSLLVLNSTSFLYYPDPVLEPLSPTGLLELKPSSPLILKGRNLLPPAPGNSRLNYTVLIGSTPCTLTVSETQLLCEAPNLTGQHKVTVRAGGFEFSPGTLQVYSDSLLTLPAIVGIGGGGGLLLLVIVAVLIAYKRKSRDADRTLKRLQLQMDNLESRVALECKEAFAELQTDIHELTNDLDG

For FITC-streptactin, the positive rate is 73%.
